{"source": "the nanobody polyreactivity screen of Harvey et al. (2022)", "data": [{"assay": "yeast display, Sf9 membrane polyspecificity reagent, FACS + sequencing; frameworks hold sequencing errors", "outline": "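Nanobodies from a synthetic yeast display library (Saccharomyces cerevisiae BJ5465), induced 36–48 hours with galactose, were stained 1 hour at 4 °C with 10% biotinylated, detergent-solubilized Sf9 membrane reagent, enriched on streptavidin microbeads, then FACS-sorted. Anti-HA (expression) and streptavidin (reagent binding) fluorescence set low and high (top ~1%) gates. Polyreactivity labels come from the gate of origin. Genes were colony-PCR amplified, MiSeq 2 × 250 sequenced and filtered by CDR length.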", "values": [{"sequence": "QVQLVESGGGLVQAGGSLRLSCAASAFIFRFYTMGWYRQATGKETELVAAITSRGDRTYYADSVKRRFTISRENAKNPVYLQMNSLKPEDTAVYYCAKATRGYRSPYGSIGYYYRGQGTQVTVSS", "polyreactivity (PSR sort gate)": "high polyreactivity"}, {"sequence": "QVQLVESGGGLVQAGGSLRLSCAASAGILRQNTMGWYRQAPGKERELVAAISSSGGRTYYADSVKGRFTISRDNAKNTVYLKMNSLIPDDPAVYYCAGKIVSRYRVIYDYWGQGTQVTVSS", "polyreactivity (PSR sort gate)": "high polyreactivity"}, {"sequence": "QVQLVESGGGLVQAGGSLRLSCAASALTFFYYAMGWYRQAPGKERELVAAISWSGGRTYYADSVKGRFTISRDNAKNTVYLQMNSLKPEDTAVYYCSADYITAHSSYSTYGYWGQGTQVTVSS", "polyreactivity (PSR sort gate)": "low polyreactivity"}, {"sequence": "QVQLVESGGGLVQAGGSLRLSCAASARIIGTYAMGWYRQATGKERELVAASTRGGTTYYADSVKGRFTISRDNAKNTVYLQMNSLIPEDTAVYYCATGPAIRYDYWGQGTQVTVSS", "polyreactivity (PSR sort gate)": "low polyreactivity"}, {"sequence": "QVQLVESGGGLVQAGGSLRLSCAASARIIYSNAMGWYRQAPGKERELVATISTGGSTYADSVKGRFTISRDNAKNTVYLQINSLKPEDTAVYYCAVDEWRWRVGAVAYYYWGQGTQVTVSS", "polyreactivity (PSR sort gate)": "low polyreactivity"}, {"sequence": "QVQLVESGGGLVQAGGSLRLSCAASARILRRNAMGWYRQAPGKEREFVAAITWRGGSTYYADSVKGRFTISRDNAKNTVYLQMNSLKPEDTAVYYCAADTYSVEYVLPYYYWGQGTQVTVSS", "polyreactivity (PSR sort gate)": "high polyreactivity"}, {"sequence": "QVQLVESGGGLVQAGGSLRLSCAASARNFGYYAMGWYRPAPGKERELVAAISSGGNTYYADSVKGRFTISRDNAKNTVYLQMNSLKPEDTAVYYCNVVYVGWQYGYDYWGQGTQVTVSS", "polyreactivity (PSR sort gate)": "low polyreactivity"}, {"sequence": "QVQLVESGGGLVQAGGSLRLSCAASARTFSRSALGWARQAPGKERELVAAISWSGGSTYYADSVKGRFTISRDKAKNSVYLQMNSLNPEDTAVYYCAAYSRWLPAYDYWGQGTQVTVSS", "polyreactivity (PSR sort gate)": "high polyreactivity"}, {"sequence": "QVQLVESGGGLVQAGGSLRLSCAASARTYGANAMGRYRQAPGKERELVAAISYHGTRTYYADSVKGRFTISRDNAKNTVYLQMNSLKPEDTAVYYCAAVCKPGVYQEGDEWGQGTQVTVSS", "polyreactivity (PSR sort gate)": "high polyreactivity"}, {"sequence": "QVQLVESGGGLVQAGGSLRLSCAASASIFRYYAMGWYRQAPGKERELVAAISYSGGSTYYADSVKGRFTISRDNAKNTVYLQMNSLKPEDTAVYYCAVPLICVDGYAYDYWGQGTQVTVSS", "polyreactivity (PSR sort gate)": "low polyreactivity"}, {"sequence": "QVQLVESGGGLVQAGGSLRLSCAASASIFYQNAMGWYRQAPGKERELVAAISSAGSTYYADSVKGRFTISRDNAKNTVYLQMNSVKPEDTAVYYLLRGQGTQVTVSS", "polyreactivity (PSR sort gate)": "low polyreactivity"}, {"sequence": "QVQLVESGGGLVQAGGSLRLSCAASASIFYRYAMGWFRQAPGKERELVAAISWRVTSTYYADSVKGRFTISRDNSKNTVYLQMNSLKPEDTAVYYCATAGTYTGGEGYWGQGTQVTVSS", "polyreactivity (PSR sort gate)": "high polyreactivity"}, {"sequence": "QVQLVESGGGLVQAGGSLRLSCAASASTFGSYAMGWYRQAPGKERELVAAISRAGSTYADSVKGRFTISRDNAKNTVYLQMNSLKTEDTAVYYCAKRDYALYYGYDYWGQGTQVTVSS", "polyreactivity (PSR sort gate)": "low polyreactivity"}, {"sequence": "QVQLVESGGGLVQAGGSLRLSCAASASTFVYNAKGWYRQAPGKERELVASITRSGSSTYYADSVKGRFTISRDNAKNTVYLQMNSLKPEDTAVYYCDVRYSVLSNYRYYYWGQGTQVTVSS", "polyreactivity (PSR sort gate)": "low polyreactivity"}, {"sequence": "QVQLVESGGGLVQAGGSLRLSCAASASTLYSYAMGWYRQAPGKEREFVAAITSDDGSKYYADSVKGRFTISRDNAKNTVYLQMNSLKQEDTAVYYCATAASVEYNYWGEGTQVTVSS", "polyreactivity (PSR sort gate)": "low polyreactivity"}, {"sequence": "QVQLVESGGGLVQAGGSLRLSCAASAYAMGWYRQAPGKERELVAAITVSGGSTHYADSVKGRFTISRDNAKNTVYLQMNSLKPEDTAVYYCNARYDVWYYYWGQGTQVTVSS", "polyreactivity (PSR sort gate)": "low polyreactivity"}, {"sequence": "QVQLVESGGGLVQAGGSLRLSCAASGAIFFVNDMGWYRQAPGKERELVAAITYSSGGTYYADSVKGRFTISRDNAKNTVYLQMNSLKPEDTAVYYCAVDFFLSYYSDMDYWGQGTQVTVSS", "polyreactivity (PSR sort gate)": "low polyreactivity"}, {"sequence": "QVQLVESGGGLVQAGGSLRLSCAASGAIFRYYAMGWYRPAPGKEREFVAAIRGSGGSPYYADSVKGRFTISRDNAKNTVYIQMISLKPEDTAVYYCAARKYSDRQVWYCYWGHGTQVTVSS", "polyreactivity (PSR sort gate)": "high polyreactivity"}, {"sequence": "QVQLVESGGGLVQAGGSLRLSCAASGATFRIDAMGWYREAPGKERELVAAIARGGTSTYYADSVKGRFTISRDNAKNTVNLQMNSLKPEDTAVYYCAKRDQDRTFPNGYWGQGTKVTVSS", "polyreactivity (PSR sort gate)": "high polyreactivity"}, {"sequence": "QVQLVESGGGLVQAGGSLRLSCAASGATFSYYAMGWYRQAPGKERELVAAISYSGGSTYYADSVKGRFTISRDNAKNTVYLQMNSLKPEDTAVYYCNARDPYYGDPSSLPDTRSRSDYWGQGTQVTVSS", "polyreactivity (PSR sort gate)": "low polyreactivity"}, {"sequence": "QVQLVESGGGLVQAGGSLRLSCAASGATFYLNDMGWYREAPGKERELVAAIDWSGGSTYYADSVKGRFTISRDNAKNTVYLQMNSLKPEDTAVYYCAARLVYEWRRLDYFIAWDYCGQGTQVTVSS", "polyreactivity (PSR sort gate)": "low polyreactivity"}, {"sequence": "QVQLVESGGGLVQAGGSLRLSCAASGCIFRYYAMGWYRQAPGKERELVAAISWGGGSTYYADSVKGRCTISRDNAKNTVYLQINSLKPEDTAVYYCNTYTYAWSRSKRGYWGQGTQVTVSS", "polyreactivity (PSR sort gate)": "high polyreactivity"}, {"sequence": "QVQLVESGGGLVQAGGSLRLSCAASGCIFSDSTMGWYRQAPGKERELVAAISGIGGSTYYADSVKGRFTISRDNAKNTVYLQMNSLKPEDTAVYYCAADDYYYPYVSHDYWGQGTQVTVSS", "polyreactivity (PSR sort gate)": "low polyreactivity"}, {"sequence": "QVQLVESGGGLVQAGGSLRLSCAASGCIFYPYAMGWYRQAPGKERELVAAITYSGGSTYADSVKGRFTISRDNAKNTVYLQMNSLKPEDTAVYYCNAKFYFYGGTYIVKYDYWGQGTQVTVSS", "polyreactivity (PSR sort gate)": "high polyreactivity"}, {"sequence": "QVQLVESGGGLVQAGGSLRLSCAASGCTSTSNAMGWYRQAPGKERELVALISSGGSTYYAVSVKGRFTISRDNAKNTVYLQMNSLKQEDTAVYYCAARRGTGSYSYRYPYGYDYWGQGTQVTVSS", "polyreactivity (PSR sort gate)": "low polyreactivity"}, {"sequence": "QVQLVESGGGLVQAGGSLRLSCAASGFAFSYYAMGWYRQAPGKEREFVASIDWSGGSTYYADSVKGRFTISRDNAKNTVYLQMNSLKAEDTAVYYCAAELDYFPGYDYWGQGTQVTVSS", "polyreactivity (PSR sort gate)": "low polyreactivity"}, {"sequence": "QVQLVESGGGLVQAGGSLRLSCAASGFICGYYAMGWYRQAPGKERELVADISRGGNTNYAESVKGRFTISRDNAKNSVYLQMNSLKPEDTAVYYCARYRRGKMDYWGQGTQVTVSS", "polyreactivity (PSR sort gate)": "high polyreactivity"}, {"sequence": "QVQLVESGGGLVQAGGSLRLSCAASGFIFAANAMGRYRQAPGKEREMVAAISESGGSTYYADSVKGRFTISRDNAKNTVYLQLNSLKPEDTAVYYCNADIVWSPVLGEYYYWGQGTQVTVSS", "polyreactivity (PSR sort gate)": "high polyreactivity"}, {"sequence": "QVQLVESGGGLVQAGGSLRLSCAASGFIFAAYAMGWYRQAPGKERELVAAITWDGGSTYYADSVKGSFTISRDNAKNTVYLQMNSLKPEDTAVYYCAARRRHGYDYWGQGTQVTVSS", "polyreactivity (PSR sort gate)": "high polyreactivity"}, {"sequence": "QVQLVESGGGLVQAGGSLRLSCAASGFIFAFYARGWYRQAPGKERELVASISRRSGSTYYADSVKGRFTISRDNAKNNVYLQMNSLKPEDTAVYYCSADRPPWETYGYDYWGQGTQVTVSS", "polyreactivity (PSR sort gate)": "low polyreactivity"}, {"sequence": "QVQLVESGGGLVQAGGSLRLSCAASGFIFAGYVMGWSRQAPGKERELVAAISSGGRTYYADSVKGRFTISRDNAKNTVYLQMNSLKPEDTAVYYCAAARWQVRATEGNYWGQGTQVTVSS", "polyreactivity (PSR sort gate)": "high polyreactivity"}, {"sequence": "QVQLVESGGGLVQAGGSLRLSCAASGFIFANNAMGWYRQAPGKERELVAAITSRGASTYYADSVKGRFTISRDNAKNTVYLQMNSLKPEDTAVYYCAKATYHYRRYYWGQGTQVTVSS", "polyreactivity (PSR sort gate)": "high polyreactivity"}, {"sequence": "QVQLVESGGGLVQAGGSLRLSCAASGFIFANNAMVWYRQAPGKERELVAVISQRGGRTYYADSVKGRFTISRDNAKNTVYLQMNSLKPADTAVYYCAASYSIAYVSPRNWHDYWGQGTQVTVSS", "polyreactivity (PSR sort gate)": "low polyreactivity"}, {"sequence": "QVQLVESGGGLVQAGGSLRLSCAASGFIFANYAMGWYRQAPGKERELVAVISQRGGRTYYADSVKGRFTISRDNAKNTVYLQMNSLKPEDTAVYYCNAVTGEWGQGTQVTVSS", "polyreactivity (PSR sort gate)": "low polyreactivity"}, {"sequence": "QVQLVESGGGLVQAGGSLRLSCAASGFIFARYAMGWNRQAPGKERELVAAISTSGGSTYYADSVKGRFTISRDNAKNTVYLQMNSLNPEDTAVYYCNKLRLSRLVHPSGYYWGQGTQVTVSS", "polyreactivity (PSR sort gate)": "high polyreactivity"}, {"sequence": "QVQLVESGGGLVQAGGSLRLSCAASGFIFASYAMGWYRQAPGTERELVAAISWRGGSTYYADSVKGRFTISRDNAKNTVYLQMNSLKPEDTAVYYCNAYGYDGTGRGYDTLDYWGQGTQVTVSS", "polyreactivity (PSR sort gate)": "low polyreactivity"}, {"sequence": "QVQLVESGGGLVQAGGSLRLSCAASGFIFAWYAMGWYRQAAGKERQLVATISSSGARTYYADSVKGRFTISRDNAKITVYLQMNSLKPEDTAVYYCAFGSVGRLKFYYWGQGTQVTVSS", "polyreactivity (PSR sort gate)": "high polyreactivity"}, {"sequence": "QVQLVESGGGLVQAGGSLRLSCAASGFIFAWYAMGWYRQAPGKERELVAAIDYSDGTTYYADSVKGRFTISRDNAKNTVYLQMNSLKPEDTAVYYCAAYNEFVYEDDYWGQGTQVTVSA", "polyreactivity (PSR sort gate)": "low polyreactivity"}, {"sequence": "QVQLVESGGGLVQAGGSLRLSCAASGFIFAYNAMGWYRQAPGKERELVAAISSRGSRTYYADSVKGRFTISRDKAKNTVYLQMNSLKPEDTAVYYCAARYSRGGFGYWGQGTQVTVSS", "polyreactivity (PSR sort gate)": "high polyreactivity"}, {"sequence": "QVQLVESGGGLVQAGGSLRLSCAASGFIFAYNAMGWYRQAPGKERELVAAISWSGGSTYYADSVKGRFTISRDNAKNTVFLQMNSLLPEDTAVYYCAARYRRNKYYYWGQGTQVTVSS", "polyreactivity (PSR sort gate)": "high polyreactivity"}, {"sequence": "QVQLVESGGGLVQAGGSLRLSCAASGFIFAYNAMGWYRQAPGKERELVAAISWSGGSTYYADSVKGRFTISRDNAKNTVYLQLNSLKPEDTAVYYCNKYIRYPFKRYGYWGQGTQVTVSS", "polyreactivity (PSR sort gate)": "high polyreactivity"}]}]}
